{
  "source": "patent EP4631972A1",
  "about": "“SITE-SPECIFIC COUPLED PEGYLATED INTERLEUKIN-2 MUTANT WITH RECEPTOR AFFINITY PREFERENCE AND USE THEREOF” (priority 2022, dated 2024)",
  "molecules": {"B1": {"name": "80K-1PEG-IL2-N88R-N77C: IL-2 mutant N88R, N77C, conjugation site 77, PEG molecular weight 80kD (conjugate)", "chain": "APTSSSTKKTQLQLEHLLLDLQMILNGINNYKNPKLTRMLTFKFYMPKKATELKHLQCLEEELKPLEEVLNLAQSKC(PEG 80 kDa)FHLRPRDLISRINVIVLELKGSETTFMCEYADETATIVEFLNRWITFSQSIISTLT"}},
  "key": {"[1]": {"conditions": "mouse, in vivo, sc, 1 mg/kg", "description": "Balb/c mice were purchased, with 4 mice in each group. Each IL-2 mutant to be tested was administered subcutaneously once at a dose of 1 mg/kg. Blood was collected from the orbit at different time points after administration, and the plasma was separated and the plasma drug concentration was detected by ELISA. The main pharmacokinetic parameters were calculated, and C-T curve was plotted."}, "IL-2αβγ triple receptor": {"biological_target": "T1, IL-2αβγ triple receptor (Homo sapiens, UniProt P01589+P14784+P31785)", "T1 construct": "Uniprot P01589 1Met-551Ile constructed into plasmid pcDNA3.1/zeo; Uniprot P14784 1Met-551Val constructed into plasmid pcDNA3.1(+); Uniprot P31785 1Met-551Thr was constructed into plasmid pcDNA3.1/zeo; expressed in transfected cells; host or cells: 293EC18 cells, transient co-transfection with pCMV/JAK3 and PGL4.52/STAT5RE", "T1 sequence (P01589 22-272)": "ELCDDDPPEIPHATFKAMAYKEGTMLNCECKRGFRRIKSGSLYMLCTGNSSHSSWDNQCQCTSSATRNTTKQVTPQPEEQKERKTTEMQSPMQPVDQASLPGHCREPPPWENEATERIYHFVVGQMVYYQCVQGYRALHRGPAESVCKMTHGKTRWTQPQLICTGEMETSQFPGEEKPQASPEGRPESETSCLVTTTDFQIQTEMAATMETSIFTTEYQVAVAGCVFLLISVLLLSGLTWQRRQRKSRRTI", "T1 sequence (P14784 27-551)": "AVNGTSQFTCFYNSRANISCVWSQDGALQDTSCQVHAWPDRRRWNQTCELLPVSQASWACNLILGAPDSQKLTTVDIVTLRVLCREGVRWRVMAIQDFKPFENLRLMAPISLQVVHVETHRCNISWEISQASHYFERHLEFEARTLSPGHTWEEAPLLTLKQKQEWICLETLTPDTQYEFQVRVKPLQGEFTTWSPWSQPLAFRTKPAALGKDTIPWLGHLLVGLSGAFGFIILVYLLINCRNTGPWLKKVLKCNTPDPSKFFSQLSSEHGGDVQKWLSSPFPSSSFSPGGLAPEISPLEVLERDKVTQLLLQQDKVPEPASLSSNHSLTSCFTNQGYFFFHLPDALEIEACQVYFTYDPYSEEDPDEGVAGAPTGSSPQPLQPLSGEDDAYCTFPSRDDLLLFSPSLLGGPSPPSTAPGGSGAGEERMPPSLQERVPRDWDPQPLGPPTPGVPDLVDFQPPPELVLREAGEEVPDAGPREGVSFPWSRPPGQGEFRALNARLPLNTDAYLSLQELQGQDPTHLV", "T1 sequence (P31785 23-369)": "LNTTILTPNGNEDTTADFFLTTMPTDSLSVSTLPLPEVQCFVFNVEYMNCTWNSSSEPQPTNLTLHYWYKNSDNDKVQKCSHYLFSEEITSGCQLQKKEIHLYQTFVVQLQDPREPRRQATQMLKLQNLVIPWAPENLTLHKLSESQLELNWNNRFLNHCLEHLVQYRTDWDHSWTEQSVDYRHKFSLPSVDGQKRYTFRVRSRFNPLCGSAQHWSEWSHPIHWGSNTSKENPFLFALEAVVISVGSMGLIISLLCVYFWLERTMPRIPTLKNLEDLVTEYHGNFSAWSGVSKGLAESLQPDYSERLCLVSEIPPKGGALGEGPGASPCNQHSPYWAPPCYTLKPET", "assay": "STAT5 reporter gene assay, activation of IL-2αβγ triple receptor in 293EC18/αβγ/JAK3/STAT5 cells", "format": "cell-based", "conditions": "Example 4, Figure 6, 80k PEG", "experimental": "Since the binding of IL-2 to the β and γ subunits of its receptor induces STAT5 phosphorylation, which subsequently leads to dimerization and translocation into the nucleus to promote target gene transcription, this example evaluates the ability of the mutant IL-2 polypeptides to induce signaling through the IL-2 receptor by measuring STAT5 phosphorylation.\nAdherent 293EC18 cells were cultured to about 90% confluence using conventional methods. After trypsin digestion, the cells were resuspended in cell culture medium to 4×10^5 cells/ml and 50 µl/well were added to two 96-well cell culture plates. After incubation at 37°C for 48 h, the supernatant was aspirated and fresh culture medium was added. […]\nEach IL2 mutant was diluted 4-fold in a gradient manner using PBS buffer, with a total of 11 dilutions and a starting concentration of 65.2 nM. […] Bio-Lite Luciferase Assay System reagents that have been mixed and equilibrated to room temperature were added to the cell culture plates to be tested at 100 µl/well, placed on a microplate shaker at 450 rpm to mix for 2 minutes, then allowed to stand at room temperature for 3 minutes, and the chemiluminescence value was detected with an enzyme plate reader.\nThe logarithm of the final concentration of each IL-2 mutant sample was used as the X-axis, and the chemiluminescence detection results were used as the Y-axis for plotting. Data were analyzed using the four-parameter logistic regression model in GraphPad Prism 9. Table 2 EC50 values for the activation of the IL-2αβγ triple receptor by PEG-IL-2 mutants as determined by a reporter gene assay.\nAccording to the method of Example 3, each polyethylene glycol-modified mutant obtained in this example was assessed for the binding preference to the IL2 receptors by a reporter assay. Table 4 EC50 values for the activation of the IL-2αβγ triple receptor by PEG-IL-2 mutants as determined by a reporter gene assay. […]"}},
  "data": [
    {"molecule": "B1", "values": [
      {"measurement": "T1/2", "setting": "[1]", "value": "25.23 ± 3.45", "unit": "h"},
      {"measurement": "activation activity on the IL-2Rαβγ triple receptor compared with 80K-1PEG-IL2-N88R-D109C", "setting": "IL-2αβγ triple receptor", "value": "slightly higher activation activity"}
    ]}
  ]
}
